The text below walks through data of patent publication US20140134176A1 (Pfizer, published 2014).

Test [1] addresses T1, human PDGF-AA (human, UniProt P04085 87-211, limits assumed). Kind of test: ELISA.
Test [2] has as its target T2, human PDGF-BB (human, UniProt P01127 82-190). Kind of test: cell-based or functional assay.
For test [3], the target named is T1, human PDGF-AA. Kind of test: SPR (Biacore), antibody captured. As for the experimental part:
(§1) In order to test the specificity and cross species reactivity, the binding affinities of three MOR8457 IgG variants, MOR8457-IKR-hIgG1-3m, MOR8457-mIgG1, and MOR8457-GL-hIgG1-3m, to different human PDGF ligands, including human PDGF-AA, -AB, -DD, as well as rat PDGF-BB (all obtained from R&D systems, Minneapolis, Minn.) and mouse PDGF-BB (Invitrogen, Carlsbad, Calif.) were tested. Briefly, anti-human or anti-mouse IgG (GE Healthcare) antibodies were immobilized in adjacent flow cells of a CM5 sensor chip between 8000-10,000 resonance units (RU) using amine coupling as directed by the manufacturer. Antibodies were diluted into PBS-NET (10 mM Phosphate pH 7.4, 287 mM NaCl, 2.7 mM KCl, 3.2 mM EDTA, 0.01% Tween 20) to 1 μg/mL and injected independently over the respective anti-human or anti-mouse surface for 10 seconds resulting in a stable anti-PDGF surface between 50-100 RU. PDGF proteins were diluted to 1 nM in PBS-NET and serially diluted two-fold to 0.25 nM. Each concentration of PDGF was then injected over the antibody surface for 2 minutes at a flow rate of 100 μl/min. The complex was allowed to dissociate for 10 minutes. The surface was regenerated with a 30 second injection of 10 mM magnesium chloride leaving the surface ready for another round of anti-PDGF antibody capture and PDGF binding kinetics. Kinetic data were double referenced (Myszka et al., 1999, J. Mol. Recognit. 12 279) using scrubber2 software (Bio-Logic Software), then fit to a 1:1 binding model using Biacore evaluation software version 4.1. The results shown were an average of three independent binding studies.
For orientation: SPR reads the build-up and loss of mass on a sensor chip optically.

Test [4] concerns the target human PDGF-DD (human, UniProt Q9GZP0 250-370, limits assumed). Kind of test: SPR (Biacore), antibody captured. Here is the method: as §1
Test [5] addresses T2, human PDGF-BB. Kind of test: SPR (Biacore 2000), antibody captured via anti-mouse IgG, PDGF injected. As for the experimental part:
(§2) Anti-human (A-D, I-K) or anti-mouse (E-H) IgG antibodies were immobilized in flow cells of CM5 sensor chips. 1 μg/mL of MOR8457-IKR-hIgG1-3m (A-D), MOR8457-mIgG1 (E-H) or MOR8457-GL-hIgG1-3m (I-K) was injected independently over the respective anti-human or anti-mouse surface for 10 seconds resulting in a stable anti-PDGF surface between 50-100 RU. Different concentration of PDGF proteins, 0.25, 0.5, and 1 nM, was then injected over the antibody surface for 2 minutes at a flow rate of 100 μl/min for binding. The complex was allowed to dissociate for 10 minutes. The surface was regenerated with a 30 second injection of 10 mM magnesium chloride leaving the surface ready for another round of anti-PDGF antibody capture and PDGF binding kinetics. Each of these three antibodies bound tightly to human (A, E, I), mouse (B, F, J) and rat (C, G, K) PDGF-BB. MOR8457-IKR-hIgG1-3m (D) and MOR8457-mIgG1 (H) bound to human PDGF-AB. Each sensorgram shown is one representative of three independent experiments.
as §1, with “kinetics.” for “kinetics. Kinetic data were double referenced (Myszka et al., 1999, J. Mol. Recognit. 12 279) using scrubber2 software (Bio-Logic Software), then fit to a 1:1 binding model using Biacore evaluation software version 4.1. The results shown were an average of three independent binding studies.”

Test [6] has as its target T3, mouse PDGF-BB (mouse, UniProt P31240 82-190).
T3 construct: also called muBB; Mu PDGF-BB
The description is as above. As for the experimental part: as §2
as §1, with “kinetics.” for “kinetics. Kinetic data were double referenced (Myszka et al., 1999, J. Mol. Recognit. 12 279) using scrubber2 software (Bio-Logic Software), then fit to a 1:1 binding model using Biacore evaluation software version 4.1. The results shown were an average of three independent binding studies.”

For test [7], the target named is T4, rat PDGF-BB (rat, UniProt Q05028 74-182).
T4 construct: also called ratBB
The description is as above. Here is the method:
as §2
as §1, with “kinetics.” for “kinetics. Kinetic data were double referenced (Myszka et al., 1999, J. Mol. Recognit. 12 279) using scrubber2 software (Bio-Logic Software), then fit to a 1:1 binding model using Biacore evaluation software version 4.1. The results shown were an average of three independent binding studies.”

Test [8] addresses T5, human PDGF-AB (human, UniProt P04085 87-211, limits assumed).
T5 construct: Heterodimer of PDGF-A and PDGF-B, bought; also called huAB; Hu PDGF-AB
The test is described as above. As for the experimental part:
as §2
as §1, with “kinetics.” for “kinetics. Kinetic data were double referenced (Myszka et al., 1999, J. Mol. Recognit. 12 279) using scrubber2 software (Bio-Logic Software), then fit to a 1:1 binding model using Biacore evaluation software version 4.1. The results shown were an average of three independent binding studies.”

For test [9], the target named is T2, human PDGF-BB. Kind of test: SPR (Biacore 2000), antibody captured via anti-mouse IgG, PDGF injected; off rate beyond instrument limit. Here is the method:
as §2
as §1, with “kinetics.” for “kinetics. Kinetic data were double referenced (Myszka et al., 1999, J. Mol. Recognit. 12 279) using scrubber2 software (Bio-Logic Software), then fit to a 1:1 binding model using Biacore evaluation software version 4.1. The results shown were an average of three independent binding studies.”

Test [10] deals with T3, mouse PDGF-BB. The test is described as above. As for the experimental part: as §2
as §1, with “kinetics.” for “kinetics. Kinetic data were double referenced (Myszka et al., 1999, J. Mol. Recognit. 12 279) using scrubber2 software (Bio-Logic Software), then fit to a 1:1 binding model using Biacore evaluation software version 4.1. The results shown were an average of three independent binding studies.”

For test [11], the target named is T4, rat PDGF-BB. The test is described as above. As for the experimental part:
as §2
as §1, with “kinetics.” for “kinetics. Kinetic data were double referenced (Myszka et al., 1999, J. Mol. Recognit. 12 279) using scrubber2 software (Bio-Logic Software), then fit to a 1:1 binding model using Biacore evaluation software version 4.1. The results shown were an average of three independent binding studies.”

The target of test [12] is T5, human PDGF-AB. The test is described as above. As for the experimental part:
as §2
as §1, with “kinetics.” for “kinetics. Kinetic data were double referenced (Myszka et al., 1999, J. Mol. Recognit. 12 279) using scrubber2 software (Bio-Logic Software), then fit to a 1:1 binding model using Biacore evaluation software version 4.1. The results shown were an average of three independent binding studies.”

The target in test [13] is T2, human PDGF-BB. Kind of test: SPR (Biacore) competition in solution: MOR8457-mIgG1 serially diluted, mixed with human PDGF-BB, 20 h at 2-8 C, mixture injected over PDGFRβ-hIgG1 captured on anti-human IgG; blocked partner PDGFRβ-hIgG1. Here is the method: MOR8457-mIgG1 was serially diluted in PBS then mixed with […] of human PDGF-BB and incubated for 20 hours at 2-8° C. to reach equilibrium as indicated by the [brackets]. Each MOR8457-mIgG1 and PDGF-BB dilution mixture was then injected over the surface of PDGFRβ-hIgG1 captured by anti-human IgG1 on a CM5 chip. […] Data shown are from one representative experiment of two independent experiments.
Because of the complexity of the 2:1 binding stoichiometry, and also to avoid any potential artifacts introduced by sequential binding on the chip, the competitive binding was further confirmed by neutralizing PDGF-BB with MOR8457 in solution as illustrated by the diagram shown in FIG. 5A. MOR8457-mIgG1 was serially diluted in PBS then mixed with […] of human PDGF-BB and incubated for 20 hours at 2-8° C. to reach equilibrium. Each MOR8457-mIgG1 and PDGF-BB dilution mixture shown between [brackets] in FIG. 5A, was then injected over the surface of PDGFRβ-hIgG1 captured by anti-human IgG1 on a CM5 chip. FIG. 5B depicts a graph showing the concentration response curve of MOR8457 inhibition.

T2 sequence (P01127 82-190 limits assumed): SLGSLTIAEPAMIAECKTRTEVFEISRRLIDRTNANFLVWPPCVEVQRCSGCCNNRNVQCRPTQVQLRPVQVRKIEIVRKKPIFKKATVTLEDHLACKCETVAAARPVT
T4 sequence (Q05028 74-182 limits assumed): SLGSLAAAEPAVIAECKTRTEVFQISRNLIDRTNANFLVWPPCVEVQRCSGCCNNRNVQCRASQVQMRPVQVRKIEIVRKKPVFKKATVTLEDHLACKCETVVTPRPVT
T5 sequence (chain, as listed by the source limits assumed, chain 2 of 2, other chains not shown): as the sequence (P01127 82-190 limits assumed) above
T3 sequence (P31240 82-190 limits assumed): as the sequence (Q05028 74-182 limits assumed) above, with V83I, V102I counted along it
human PDGF-DD, sequence (Q9GZP0 250-370 limits assumed): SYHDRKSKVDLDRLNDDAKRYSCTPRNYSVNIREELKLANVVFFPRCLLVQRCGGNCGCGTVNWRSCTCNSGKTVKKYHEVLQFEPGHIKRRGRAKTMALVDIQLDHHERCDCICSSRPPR

B1: MOR8457-Fab (Fab, V domains shown)
VH: EVQLVESGGGLVQPGGSLRLSCAASGFTFSSYAMSWVRQAPGKGLEWVSYISDDGSLKYYADSVKGRFTISRDNSKNTLYLQMNSLRAEDTAVYYCARHPYWYGGQLDLWGQGTLVTVSS
VL: SYELTQPPSVSVAPGQTARISCSGDSLGSYFVHWYQQKPGQAPVLVIYDDSNRPSGIPERFSGSNSGNTATLTISGTQAEDEADYYCSAFTHNSDVFGGGTKLTVL
notes: Fab format (HuCAL GOLD, expressed in E. coli); also called Fab-MOR8457
In the case of B1, the binding result in test [1] is recorded as “no binding”. The “IC50, inhibition of PDGF-BB-induced PDGF-Rβ Tyr751 phosphorylation (PAE PDGF-Rβ cells)” value in [2] amounted to 320 pM.

B2: MOR8457-mIgG1 (antibody)
heavy: EVQLVESGGGLVQPGGSLRLSCAASGFTFSSYAMSWVRQAPGKGLEWVSYISDDGSLKYYADSVKGRFTISRDNSKNTLYLQMNSLRAEDTAVYYCARHPYWYGGQLDLWGQGTLVTVSSAKTTPPSVYPLAPGSAAQTNSVTLGCLVKGYFPEPVTVTWNSGSLSSGVHTFPAVLQSDLYTLSSSVTVPSSTWPSETVTCNVAHPASSTKVDKKIVPRDCGCKPCICTVPEVSSVFIFPPKPKDVLTITLTPKVTCVVVDISKDDPEVQFSWFVDDVEVHTAQTQPREEQFNSTFRSVSELPIMHQDWLNGKEFKCRVNSAAFPAPIEKTISKTKGRPKAPQVYTIPPPKEQMAKDKVSLTCMITDFFPEDITVEWQWNGQPAENYKNTQPIMDTDGSYFVYSKLNVQKSNWEAGNTFTCSVLHEGLHNHHTEKSLSHSPGK
light: SYELTQPPSVSVAPGQTARISCSGDSLGSYFVHWYQQKPGQAPVLVIYDDSNRPSGIPERFSGSNSGNTATLTISGTQAEDEADYYCSAFTHNSDVFGGGTKLTVLQPKSSPSVTLFPPSSEELETNKATLVCTITDFYPGVVTVDWFTKVDGTPVTQGMETTQPSKQSNNKYMASSYLTLTARAWERHSSYSCQVTHEGHTVEFTKSLSRADCS
notes: Original MOR8457 VH + mouse wild type IgG1 constant; original VL + mouse wild type lambda constant
In general, kon refers to a measure of how fast the partners come together. The low end stands for slower complex formation, the high end for faster complex formation. What is called Kd is the free concentration of one partner at which half of the binding sites on the other are occupied at equilibrium, for simple one-to-one binding. B2: the binding result in test [3] and in test [4] was “no binding (tested: 0.25-1 nM PDGF)” each time. The kon in test [5] was determined as 1.12e+07 M⁻¹ s⁻¹; in test [6], 2.48e+07 M⁻¹ s⁻¹; in test [7] it was 1.42e+07 M⁻¹ s⁻¹; in test [8], 5.9e+06 M⁻¹ s⁻¹. Also, the Kd in [9], in [10], in [11] and in test [12] was under 10 pM throughout. Besides, in test [13], the “IC50 (read off the curve)” value was about 40 pM.
